For one molecule, Ki results are on record in publication PMC9791688, “Bioluminescence Goes Dark: Boosting the Performance of Bioluminescent Sensor Proteins Using Complementation Inhibitors” (ACS Sensors, 2022).

This experiment concerns the target T1, LgBiT (C-terminal GTTSA linker and Strep-tag (WSHPQFEK) omitted).
T1 chain: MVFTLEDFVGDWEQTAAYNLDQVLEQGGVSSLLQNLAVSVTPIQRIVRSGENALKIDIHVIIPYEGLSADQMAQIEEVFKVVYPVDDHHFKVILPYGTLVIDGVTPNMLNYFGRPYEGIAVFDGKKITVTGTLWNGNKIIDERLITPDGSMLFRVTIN
Nature of the experiment: split reporter (BiFC, NanoBiT); competition: DarkBiT101 titrated to 75 pM SmBiT86 and 0.75 nM LgBiT, loss of luminescence; 1x PBS, 0.02% Tween20, 4 °C for 16 h before addition of 1:1000 NanoGlo. The following applies: both partners purified.

On to VTGYALFEKES [DarkBiT101 peptide], for which the inhibition constant (Ki) was found to be 2600 ± 400 nM.
